Substitutions are numbered along the chain they refer to. Values joined by “and” are separate entries in the source; they are usually repeats but may differ in a detail not shown here. Identical values can stand only once. Like-named read-outs stand apart in the source and are kept apart here.

Consider four molecules from patent publication US20180186873A1 (CEPHALON, published 2018).

For one assay, the target named is T1, mouse IL-5 (mouse, UniProt P04401 21-133).
T1 sequence (looked up): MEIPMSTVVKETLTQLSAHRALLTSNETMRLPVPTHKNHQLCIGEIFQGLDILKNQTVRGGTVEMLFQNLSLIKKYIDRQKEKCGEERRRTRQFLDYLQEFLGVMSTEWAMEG
The assay is described as follows: SPR.

For the next assay, the target named is T2, rat IL-5 (rat, UniProt Q08125 20-132).
T2 sequence (looked up): T1 sequence (looked up) with T14I, A18T, M65I, R79G, R90K, Q93H, G113V
The assay is described as follows: SPR. (In general: SPR reads the build-up and loss of mass on a sensor chip optically.)

The next assay addresses T3, guinea pig IL-5 (guinea pig, UniProt O08987 20-135).
T3 sequence: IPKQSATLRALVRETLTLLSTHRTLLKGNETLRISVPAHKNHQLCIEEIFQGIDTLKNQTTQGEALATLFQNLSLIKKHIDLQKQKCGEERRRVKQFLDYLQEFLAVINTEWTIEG
The assay is described as follows: SPR.

The target in another assay is recombinant human IL-2 (human, UniProt P60568 21-153). The assay is described as follows: SPR.
Sequence of recombinant human IL-2 (P60568 21-153 limits assumed): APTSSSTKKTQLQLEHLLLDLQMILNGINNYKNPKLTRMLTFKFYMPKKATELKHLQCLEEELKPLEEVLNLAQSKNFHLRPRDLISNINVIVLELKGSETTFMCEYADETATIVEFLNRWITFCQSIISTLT
The next assay deals with T4, recombinant human IL-3 (human, UniProt P08700 20-152).
T4 sequence (looked up): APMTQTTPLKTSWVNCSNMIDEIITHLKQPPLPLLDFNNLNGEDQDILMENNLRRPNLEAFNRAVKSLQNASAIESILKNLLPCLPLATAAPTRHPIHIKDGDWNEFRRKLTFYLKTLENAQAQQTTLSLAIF
The assay is described as follows: SPR.

The target in another assay is T5, recombinant human IL-4 (human, UniProt P05112 25-153).
T5 sequence (looked up): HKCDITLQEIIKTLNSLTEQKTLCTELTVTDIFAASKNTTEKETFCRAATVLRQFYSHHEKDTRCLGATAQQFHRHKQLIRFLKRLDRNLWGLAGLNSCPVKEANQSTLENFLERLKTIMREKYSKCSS
The assay is described as follows: SPR.

Assay [1] has as its target recombinant human granulocyte macrophage colony stimulating factor (human, UniProt P04141 18-144). As to the kind of experiment: SPR.
Assay [2] concerns the target T6, recombinant human macrophage colony stimulating factor (human, UniProt P09603 33-190, limits assumed).
T6 sequence (looked up): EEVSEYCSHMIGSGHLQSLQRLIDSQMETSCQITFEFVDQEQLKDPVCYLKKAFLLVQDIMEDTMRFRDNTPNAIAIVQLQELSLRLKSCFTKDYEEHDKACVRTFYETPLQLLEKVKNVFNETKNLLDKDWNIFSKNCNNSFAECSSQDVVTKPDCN
As to the kind of experiment: SPR.

The target in assay [3] is recombinant human growth hormone (human, UniProt P01241 27-217). The assay is described as follows: SPR.
Sequence of recombinant human growth hormone (P01241 27-217 limits assumed): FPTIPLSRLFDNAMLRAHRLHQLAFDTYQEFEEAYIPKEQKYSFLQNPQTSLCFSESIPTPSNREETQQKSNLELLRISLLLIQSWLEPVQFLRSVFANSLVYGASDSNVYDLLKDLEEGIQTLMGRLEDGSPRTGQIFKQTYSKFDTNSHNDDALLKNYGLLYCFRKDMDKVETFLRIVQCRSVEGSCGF
The target of assay [4] is T7, recombinant human IL-5 (human, UniProt P05113 20-134). As to the kind of experiment: SPR, Protein A capture.
Assay [5] addresses T7, recombinant human IL-5. The assay is described as follows: SPR, Protein A capture. This is another data set of the same source.
Assay [6] has as its target T7, recombinant human IL-5. The assay is described as follows: SPR, Protein A capture. This is another data set of the same source.
In assay [7] the target is T7, recombinant human IL-5. As to the kind of experiment: SPR, Protein A capture. The source holds these as a separate data set.
The target of assay [8] is T7, recombinant human IL-5. The assay is described as follows: SPR, Protein A capture. The source holds these as a separate data set.
The target of assay [9] is T7, recombinant human IL-5. The assay is described as follows: SPR, Protein A capture. The source holds these as a separate data set.
The target in assay [10] is T7, recombinant human IL-5. As to the kind of experiment: SPR, Protein A capture. The source holds these as a separate data set.
Assay [11] concerns the target T7, recombinant human IL-5. As to the kind of experiment: SPR, Protein A capture. This is another data set of the same source.
The target of assay [12] is T7, recombinant human IL-5. As to the kind of experiment: SPR, Protein A capture. The source holds these as a separate data set.
Assay [13] has as its target T7, recombinant human IL-5. The assay is described as follows: SPR, Protein A capture. This is another data set of the same source.
Assay [14] deals with T8, recombinant human IL-5 (human, UniProt P05113 20-134). The assay is described as follows: cell-based or functional assay.
Assay [15] deals with T8, recombinant human IL-5.
Assay [16] deals with T9, recombinant human IL-5 (human, UniProt P05113 20-134). As to the kind of experiment: SPR.
The target of assay [17] is T9, recombinant human IL-5. As to the kind of experiment: SPR. This is another data set of the same source.

Sequence of recombinant human granulocyte macrophage colony stimulating factor (P04141 18-144 limits assumed): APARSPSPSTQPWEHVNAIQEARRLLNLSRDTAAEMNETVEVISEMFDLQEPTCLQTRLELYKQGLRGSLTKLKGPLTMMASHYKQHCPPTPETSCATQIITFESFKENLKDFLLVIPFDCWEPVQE

B1: antibody 3A5.046 (antibody, human IgG4 S228P, lambda)
heavy: QVQLQESGPGLVKPSQTLSLTCTVSGGSISNGGYYWSWIRQHPGKGLEWIGYIYYSGSTYYNPSLKSRVTISVDTSKNQFSLKLSSVTAADTAVYYCASLGNWFDYWGQGTLVTVSSASTKGPSVFPLAPCSRSTSESTAALGCLVKDYFPEPVTVSWNSGALTSGVHTFPAVLQSSGLYSLSSVVTVPSSSLGTKTYTCNVDHKPSNTKVDKRVESKYGPPCPPCPAPEFLGGPSVFLFPPKPKDTLYITREPEVTCVVVDVSQEDPEVQFNWYVDGVEVHNAKTKPREEQFNSTYRVVSVLTVLHQDWLNGKEYKCKVSNKGLPSSIEKTISKAKGQPREPQVYTLPPSQEEMTKNQVSLTCLVKGFYPSDIAVEWESNGQPENNYKTTPPVLDSDGSFFLYSRLTVDKSRWQEGNVFSCSVMHEALHNHYTQKSLSLSLG
light: SYVLTQPPSVSVAPGQTARITCGGNNIGSKNVYWYQQKPGQAPVLVVHDDSDRPSGIPERFSGSNSGNTATLTISRVEVGDEADYSCQVWDSSSDHVVFGGGTKLTVLGQPKAAPSVTLFPPSSEELQANKATLVCLISDFYPGAVTVAWKADSSPVKAGVETTTPSKQSNNKYAASSYLSLTPEQWKSHRSYSCQVTHEGSTVEKTVAPTECS
Turning to B1, the binding result with mouse IL-5 is reported as “no binding (tested: 10 µg/ml)”; with rat IL-5 it was “no binding (tested: 10 µg/ml)”; with guinea pig IL-5, “no binding (tested: 10 µg/ml)”; with recombinant human IL-2, “no binding (tested: 1 µg/ml)”; with recombinant human IL-3, “no binding (tested: 1 µg/ml)”; with recombinant human IL-4, “no binding (tested: 1 µg/ml)”. The binding result in assay [1], in assay [2] and in assay [3] was “no binding (tested: 1 µg/ml)” throughout.

B2: 3A5.040 (antibody, human IgG4 S228P, lambda)
heavy: not shown
light: B1 light
Turning to B2, the dissociation constant Kd (as a rule, the equilibrium constant for the complex coming apart) in the assay with recombinant human IL-5 [4] is 0.167 nM and 0.174 nM; with recombinant human IL-5 [5] it was 0.161 nM and 0.168 nM; with recombinant human IL-5 [6], 0.148 nM and 0.193 nM; with recombinant human IL-5 [7] it was 0.193 nM and 0.16 nM; with recombinant human IL-5 [8], 0.18 nM; with recombinant human IL-5 [9], 0.171 nM. For the same molecule, the Kd turned out to be 0.147 nM in the assay with recombinant human IL-5 [10], 0.163 nM with recombinant human IL-5 [11] and 0.175 nM with recombinant human IL-5 [12]. Also, the koff (as a rule, the rate constant with which the complex falls apart) is 0.000237 s⁻¹ and 0.000252 s⁻¹ with recombinant human IL-5 [4]; 0.000232 s⁻¹ and 0.000239 s⁻¹ with recombinant human IL-5 [5]; 0.000214 s⁻¹ and 0.000285 s⁻¹ in the assay with recombinant human IL-5 [6]; 0.000261 s⁻¹ and 0.000232 s⁻¹ with recombinant human IL-5 [7]; 0.000246 s⁻¹ in the assay with recombinant human IL-5 [8]; 0.000252 s⁻¹ with recombinant human IL-5 [9]. For the same molecule, the koff is 0.000213 s⁻¹ with recombinant human IL-5 [10], 0.000229 s⁻¹ in the assay with recombinant human IL-5 [11] and 0.000245 s⁻¹ with recombinant human IL-5 [12]. In addition, the kon – broadly, the second-order rate constant of association – with recombinant human IL-5 [4] was 1.42e+06 M⁻¹ s⁻¹ and 1.45e+06 M⁻¹ s⁻¹; with recombinant human IL-5 [5] it was 1.44e+06 M⁻¹ s⁻¹ and 1.43e+06 M⁻¹ s⁻¹; with recombinant human IL-5 [6] it was 1.44e+06 M⁻¹ s⁻¹ and 1.48e+06 M⁻¹ s⁻¹; with recombinant human IL-5 [7], 1.36e+06 M⁻¹ s⁻¹ and 1.45e+06 M⁻¹ s⁻¹; with recombinant human IL-5 [8], 1.36e+06 M⁻¹ s⁻¹; in the assay with recombinant human IL-5 [9] it was 1.47e+06 M⁻¹ s⁻¹. The values for the kon with recombinant human IL-5 [10], with recombinant human IL-5 [11] and with recombinant human IL-5 [12] were 1.45e+06 M⁻¹ s⁻¹, 1.41e+06 M⁻¹ s⁻¹ and 1.4e+06 M⁻¹ s⁻¹, respectively. Moreover, the “% 3A5.040 kd” value with recombinant human IL-5 [13] was determined as 94%.

B3: antibody 3A5 (antibody, human IgG1, lambda, V domains shown)
VH: QVQLQESGPGLVKPSQTLSLTCTVSGGSISNGGYYWSWIRQHPGKGLEWIGYIYYSGSTYYNPSLKSRVSISVDTSKNQFSLKLNSVTAADTAVYYCASLGNWFDYWGQGTLVTVSS
VL: SSILTQPPSVSVAPGQTARITCGGNNIGSKNVYWYQQKPGQAPVLVVHDDSDRPSGIPERFSGSNSGNTATLTISRVEVGDEADYSCQVWYSSSDHVVFGGGTKLTVLG
On to B3, for which the “IC50 (pM) in TF1.6G4” value in the assay with recombinant human IL-5 [14] was found to be 35.1 pM. Moreover, the Kd with recombinant human IL-5 [15] was 0.036 nM.

B4: 3A5.294 (antibody, human IgG4 S228P, lambda, V domains shown)
VH: B3 VH with S70T, N85S
VL: B3 VL with S2Y, I3V, Y91D, V98A
Take B4: in the assay with recombinant human IL-5 [16], the “% 3A5.040 kd” value stood at 155%. The Kd with recombinant human IL-5 [17] is 0.123 nM.
